Data on two molecules can be found in article PMC2275093.

In data set [1] the target is T1, Cren7 (recombinant) (Sulfolobus solfataricus P2, UniProt Q97ZE3 1-60).
T1 sequence: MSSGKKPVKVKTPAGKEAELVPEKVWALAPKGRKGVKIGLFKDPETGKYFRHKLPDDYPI
The data set is described as follows: NMR 1H-15N HSQC titration.

Data set [2] addresses T1, Cren7 (recombinant). The data set is described as follows: EMSA. In general terms: Mobility shift assays separate free from complexed probe on a gel.

B1: 10-bp duplex (dsDNA)
DNA 1: GCGAATTCGC
DNA 2: GCGAATTCGC
As to B1, the binding result in data set [1] is “binds”.

B2: poly(GACT)15 60 nt ssDNA (ssDNA)
DNA: GACTGACTGACTGACTGACTGACTGACTGACTGACTGACTGACTGACTGACTGACTGACT
With B2, in data set [2], the Kd was ~2500 nM.

Broadly, the Kd is the concentration at which binding is half-saturated.
